The chains are these.
B1: Complement factor H-related protein 1 (Homo sapiens), Q03591 (parent)
chain: MWLLVSVILISRISSVGGEATFCDFPKINHGILYDEEKYKPFSQVPTGEVFYYSCEYNFVSPSKSFWTRITCTEEGWSPTPKCLRLCFFPFVENGHSESSGQTHLEGDTVQIICNTGYRLQNNENNISCVERGWSTPPKCRSTDTSCVNPPTVQNAHILSRQMSKYPSGERVRYECRSPYEMFGDEEVMCLNGNWTEPPQCKDSTGKCGPPPPIDNGDITSFPLSVYAPASSVEYQCQNLYQLEGNKRITCRNGQWSEPPKCLHPCVISREIMENYNIALRWTAKQKLYLRTGESAEFVCKRGYRLSSRSHTLRTTCWDGKLEYPTCAKR
B2: Complement factor H-related protein 1 (Homo sapiens), Q03591 (parent)
chain: B1 chain
partner: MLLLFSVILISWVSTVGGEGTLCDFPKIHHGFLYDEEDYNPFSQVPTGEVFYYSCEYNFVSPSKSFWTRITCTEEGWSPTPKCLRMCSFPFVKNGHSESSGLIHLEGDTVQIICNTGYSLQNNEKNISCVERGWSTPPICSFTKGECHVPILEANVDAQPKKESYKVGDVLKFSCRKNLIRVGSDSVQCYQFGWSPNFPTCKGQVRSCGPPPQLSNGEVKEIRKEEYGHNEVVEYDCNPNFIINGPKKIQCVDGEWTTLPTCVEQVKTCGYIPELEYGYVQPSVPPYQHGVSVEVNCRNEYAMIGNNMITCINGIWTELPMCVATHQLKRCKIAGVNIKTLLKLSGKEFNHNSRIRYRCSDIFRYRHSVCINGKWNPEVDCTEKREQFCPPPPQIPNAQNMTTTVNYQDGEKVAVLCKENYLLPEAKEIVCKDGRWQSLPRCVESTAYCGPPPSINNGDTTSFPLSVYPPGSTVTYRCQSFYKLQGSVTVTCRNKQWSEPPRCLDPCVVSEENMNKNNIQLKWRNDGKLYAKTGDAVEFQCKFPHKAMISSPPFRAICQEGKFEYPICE

The variants in one test derive from B1. The following applies: with fhr2_human CFHR2, P36980.
In the case of MWLLVSVILISRISSVGGEATFCDFPKINHGILYDEEKYKPFSQVPTGEVFYYSCEYNFVSPSKSFWTRITCTEEGWSPTPKCLRLCFFPFVENGHSESSGQTHLEGDTVQIICNTGYRLQNNENNISCVERGWSTPPKCRSTDTSCVNPPTVQNAYIVSRQMSKYPSGERVRYQCRSPYEMFGDEEVMCLNGNWTEPPQCKDSTGKCGPPPPIDNGDITSFPLSVYAPASSVEYQCQNLYQLEGNKRITCRNGQWSEPPKCLHPCVISREIMENYNIALRWTAKQKLYLRTGESAEFVCKRGYRLSSRSHTLRTTCWDGKLEYPTCAKR [H157Y;L159V;E175Q], the “effect of a mutation on the interaction” value is “with no effect”.

Variants of B2 are the subject of another test. The following applies: with fhr5_human CFHR5, Q9BXR6.
For MWLLVSVILISRISSVGGEATFCDFPKINHGILYDEEKYKPFSQVPTGEVFYYSCEYNFVSPSKSFWTRITCTEEGWSPTPKCLRLCFFPFVENGHSESSGQTHLEGDTVQIICNTGYRLQNNENNISCVERGWSTPPKCRSTDTSCVNPPTVQNAYIVSRQMSKYPSGERVRYQCRSPYEMFGDEEVMCLNGNWTEPPQCKDSTGKCGPPPPIDNGDITSFPLSVYAPASSVEYQCQNLYQLEGNKRITCRNGQWSEPPKCLHPCVISREIMENYNIALRWTAKQKLYLRTGESAEFVCKRGYRLSSRSHTLRTTCWDGKLEYPTCAKR [H157Y;L159V;E175Q], the “effect of a mutation on the interaction” value was “with no effect”.

The values above are taken from IntAct's records for PubMed 23728178.
